Values quoted from earlier work, collected in article PMC2775957.

How the values were obtained:
[1] = molecular target: CMG2 (Homo sapiens) (UniProt P58335)
[2] = molecular target: TEM8 (Homo sapiens) (UniProt Q9H6X2)

Protective antigen (from UniProt P13423)
Kd [1]: 1 nM
Kd [2]: 10 nM
